Reference: US20100209490A1

Tests used:
[1] = molecular target: human DR5 (death receptor 5) (human) (UniProt O14763); assay: cell-based or functional assay
[2] = molecular target: human Fas (human) (UniProt P25445); assay: cell-based or functional assay
human Fas (human), sequence (P25445 26-335): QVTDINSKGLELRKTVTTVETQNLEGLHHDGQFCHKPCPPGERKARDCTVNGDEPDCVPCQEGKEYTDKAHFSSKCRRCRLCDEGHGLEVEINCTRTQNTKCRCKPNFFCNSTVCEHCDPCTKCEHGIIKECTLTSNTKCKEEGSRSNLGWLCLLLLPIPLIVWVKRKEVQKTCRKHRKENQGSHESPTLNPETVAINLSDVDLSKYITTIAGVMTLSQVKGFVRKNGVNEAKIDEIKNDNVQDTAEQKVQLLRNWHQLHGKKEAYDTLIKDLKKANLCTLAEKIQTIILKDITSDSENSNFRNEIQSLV

Question: What does the source list for Mouse Anti-hDR5 Antibody (MAB6311)?
Answer: EC50 (50% cell viability), Jurkat cells, immunoliposome of Example 38 [1]: 0.075 ng/mL; EC50 (50% cell viability), Jurkat cells, immunoliposome of Example 39 [1]: 0.083 ng/mL; EC50 (50% cell viability), Jurkat cells, secondary antibody-cross-linked MAB6311 [1]: 2.39 ng/mL; EC50 Ab/IL, Jurkat cells, cross-linked MAB6311 vs immunoliposome of Example 38 [1]: 31.9; EC50 Ab/IL, Jurkat cells, cross-linked MAB6311 vs immunoliposome of Example 39 [1]: 28.8; cell viability at 0.1 ng/ml, Jurkat cells, immunoliposome of Example 38 (% cell viability) [1]: < 40; cell viability at 0.1 ng/ml, Jurkat cells, immunoliposome of Example 39 (% cell viability) [1]: < 40; cell viability at 10 or 1000 ng/ml, Jurkat cells, immunoliposome of Example 38 (% cell viability) [1]: < 5; cell viability at 10 or 1000 ng/ml, Jurkat cells, immunoliposome of Example 39 (% cell viability) [1]: < 5

Question: How did the EC50 (50% cell viability), Jurkat cells, immunoliposome of Example 36 [1] turn out when Mouse Anti-hDR5 Antibody (MAB631) was run?
Answer: 0.069 ng/mL

Question: What about the EC50 (50% cell viability), Jurkat cells, immunoliposome of Example 37 [1] of the same substance?
Answer: 0.089 ng/mL

Question: What about the EC50 (50% cell viability), Jurkat cells, secondary antibody-cross-linked MAB631 [1] of the same substance?
Answer: 13.4 ng/mL

Question: What about the EC50 Ab/IL, Jurkat cells, cross-linked MAB631 vs immunoliposome of Example 36 [1] of the same substance?
Answer: 194

Question: And the EC50 Ab/IL, Jurkat cells, cross-linked MAB631 vs immunoliposome of Example 37 [1]?
Answer: 150

Question: What about the cell viability at 0.1 ng/ml, Jurkat cells, immunoliposome of Example 36 (% cell viability) [1] of the same substance?
Answer: < 50

Question: And the cell viability at 0.1 ng/ml, Jurkat cells, immunoliposome of Example 37 (% cell viability) [1]?
Answer: < 50

Question: And the cell viability at 10 or 1000 ng/ml, Jurkat cells, immunoliposome of Example 36 (% cell viability) [1]?
Answer: < 5

Question: And the cell viability at 10 or 1000 ng/ml, Jurkat cells, immunoliposome of Example 37 (% cell viability) [1]?
Answer: < 5

Question: How did the cell viability at 500 or 5000 ng/ml, WR19L12a cells, immunoliposome of Example 40 (% cell viability) [2] turn out when Mouse Anti-hFas Antibody (DX2) was run?
Answer: < 20
